Source: patent US20140087995A1 (published 2014)
Numbered stars: 1 amine (or outer) side, 2 acyl side, 3 side chain; on linkers, the order of the positions; unused ones are H or OH. Bridge positions count the residues as written; N and C are the ends. Square brackets hold non-standard residues; d marks the D form. Side chains are listed from the residue outwards. Ends that are not written are not given here. * marks the point of attachment. C20 diacid = O=C(O)CCCCCCCCCCCCCCCCCCC(=O)*; γGlu = O=C(O)[C@H](CCC(=O)[*:2])N[*:1]

T1: rat calcitonin receptor (rat, UniProt P32214 25-516)
T1 construct: whole, on cells; Used as membranes prepared from the transfected cells (Assay VIII); also called rCTR; rat calcitonin (a) receptor
T1 sequence (looked up): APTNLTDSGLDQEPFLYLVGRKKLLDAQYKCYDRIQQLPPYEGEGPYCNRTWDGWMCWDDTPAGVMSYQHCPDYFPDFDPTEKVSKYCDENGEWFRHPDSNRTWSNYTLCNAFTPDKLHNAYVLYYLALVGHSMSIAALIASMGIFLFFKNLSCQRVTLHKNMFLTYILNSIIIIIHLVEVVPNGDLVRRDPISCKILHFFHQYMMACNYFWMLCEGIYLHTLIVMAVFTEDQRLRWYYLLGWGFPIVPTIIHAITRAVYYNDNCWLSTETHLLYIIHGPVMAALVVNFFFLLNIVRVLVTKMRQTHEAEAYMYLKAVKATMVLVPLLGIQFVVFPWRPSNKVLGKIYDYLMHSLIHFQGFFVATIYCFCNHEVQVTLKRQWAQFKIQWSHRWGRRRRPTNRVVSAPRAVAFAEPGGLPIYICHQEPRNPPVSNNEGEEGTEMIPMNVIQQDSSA

T2: human calcitonin receptor (human, UniProt P30988 25-474)
T2 sequence (looked up): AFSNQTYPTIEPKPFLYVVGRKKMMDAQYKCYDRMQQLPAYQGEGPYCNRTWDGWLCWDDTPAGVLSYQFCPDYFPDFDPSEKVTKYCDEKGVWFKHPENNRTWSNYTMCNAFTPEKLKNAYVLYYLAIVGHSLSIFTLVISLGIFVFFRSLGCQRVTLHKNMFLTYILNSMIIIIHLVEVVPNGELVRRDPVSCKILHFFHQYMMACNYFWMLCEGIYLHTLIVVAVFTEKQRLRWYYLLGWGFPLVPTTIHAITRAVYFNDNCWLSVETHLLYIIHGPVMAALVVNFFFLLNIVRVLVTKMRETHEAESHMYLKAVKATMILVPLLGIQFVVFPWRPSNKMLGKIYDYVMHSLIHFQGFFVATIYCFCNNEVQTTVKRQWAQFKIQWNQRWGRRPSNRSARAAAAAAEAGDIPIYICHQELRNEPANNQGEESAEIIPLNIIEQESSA

T3: rat amylin receptor (rat calcitonin receptor + rat RAMP 3) (rat, UniProt P32214 25-516; Q9JJ73 23-147)
T3 construct: whole, on cells; Used as membranes prepared from the transfected cells (Assay VI); also called rAmylin-R; rat amylin 3(a) receptor
T3 sequence (looked up) 1: T1 sequence (looked up)
T3 sequence (looked up) 2: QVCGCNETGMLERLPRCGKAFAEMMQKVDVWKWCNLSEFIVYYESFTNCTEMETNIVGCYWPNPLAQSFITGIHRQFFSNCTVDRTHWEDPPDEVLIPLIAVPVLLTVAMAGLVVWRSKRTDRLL

T4: human calcitonin receptor (human, UniProt P30988 25-474)
T4 construct: whole, on cells; Used as membranes prepared from the transfected cells (Assay VII); also called hCTR; hCT
T4 sequence (looked up): T2 sequence (looked up)

B1: N^ε1-[(4S)-4-carboxy-4-[[(4S)-4-carboxy-4-(19-carboxynonadecanoylamino)butanoyl]amino]butanoyl]-[Glu14,Arg17,Pro21,Pro27,Pro34,Arg35]-h-amylin (peptide)
peptide: K([γGlu-γGlu-C20 diacid])CNTATCATQRLAEFLRHSSPNFGAIPSSTNVGPRTY-NH2
modifications: disulfide 2-7; N-terminus assumed
SMILES: CC[C@H](C)[C@H](NC(=O)[C@H](C)NC(=O)CNC(=O)[C@H](Cc1ccccc1)NC(=O)[C@H](CC(N)=O)NC(=O)[C@@H]1CCCN1C(=O)[C@H](CO)NC(=O)[C@H](CO)NC(=O)[C@H](Cc1c[nH]cn1)NC(=O)[C@H](CCCNC(=N)N)NC(=O)[C@H](CC(C)C)NC(=O)[C@H](Cc1ccccc1)NC(=O)[C@H](CCC(=O)O)NC(=O)[C@H](C)NC(=O)[C@H](CC(C)C)NC(=O)[C@H](CCCNC(=N)N)NC(=O)[C@H](CCC(N)=O)NC(=O)[C@@H](NC(=O)[C@H](C)NC(=O)[C@@H]1CSSC[C@H](NC(=O)[C@@H](N)CCCCNC(=O)CC[C@H](NC(=O)CC[C@H](NC(=O)CCCCCCCCCCCCCCCCCCC(=O)O)C(=O)O)C(=O)O)C(=O)N[C@@H](CC(N)=O)C(=O)N[C@@H]([C@@H](C)O)C(=O)N[C@@H](C)C(=O)N[C@@H]([C@@H](C)O)C(=O)N1)[C@@H](C)O)C(=O)N1CCC[C@H]1C(=O)N[C@@H](CO)C(=O)N[C@@H](CO)C(=O)N[C@H](C(=O)N[C@@H](CC(N)=O)C(=O)N[C@H](C(=O)NCC(=O)N1CCC[C@H]1C(=O)N[C@@H](CCCNC(=N)N)C(=O)N[C@H](C(=O)N[C@@H](Cc1ccc(O)cc1)C(N)=O)[C@@H](C)O)C(C)C)[C@@H](C)O
notes: not restated for each compound; also called compound 110
B2: N^ε1-[(4S)-4-carboxy-4-[[(4S)-4-carboxy-4-(19-carboxynonadecanoylamino)butanoyl]amino]butanoyl]-[D-Asp14,Arg17,Pro21,Pro27,Arg35]-h-amylin (peptide)
peptide: K([γGlu-γGlu-C20 diacid])CNTATCATQRLA[dD]FLRHSSPNFGAIPSSTNVGSRTY-NH2
modifications: disulfide 2-7; N-terminus assumed
SMILES: CC[C@H](C)[C@H](NC(=O)[C@H](C)NC(=O)CNC(=O)[C@H](Cc1ccccc1)NC(=O)[C@H](CC(N)=O)NC(=O)[C@@H]1CCCN1C(=O)[C@H](CO)NC(=O)[C@H](CO)NC(=O)[C@H](Cc1c[nH]cn1)NC(=O)[C@H](CCCNC(=N)N)NC(=O)[C@H](CC(C)C)NC(=O)[C@H](Cc1ccccc1)NC(=O)[C@@H](CC(=O)O)NC(=O)[C@H](C)NC(=O)[C@H](CC(C)C)NC(=O)[C@H](CCCNC(=N)N)NC(=O)[C@H](CCC(N)=O)NC(=O)[C@@H](NC(=O)[C@H](C)NC(=O)[C@@H]1CSSC[C@H](NC(=O)[C@@H](N)CCCCNC(=O)CC[C@H](NC(=O)CC[C@H](NC(=O)CCCCCCCCCCCCCCCCCCC(=O)O)C(=O)O)C(=O)O)C(=O)N[C@@H](CC(N)=O)C(=O)N[C@@H]([C@@H](C)O)C(=O)N[C@@H](C)C(=O)N[C@@H]([C@@H](C)O)C(=O)N1)[C@@H](C)O)C(=O)N1CCC[C@H]1C(=O)N[C@@H](CO)C(=O)N[C@@H](CO)C(=O)N[C@H](C(=O)N[C@@H](CC(N)=O)C(=O)N[C@H](C(=O)NCC(=O)N[C@@H](CO)C(=O)N[C@@H](CCCNC(=N)N)C(=O)N[C@H](C(=O)N[C@@H](Cc1ccc(O)cc1)C(N)=O)[C@@H](C)O)C(C)C)[C@@H](C)O
notes: not restated for each compound
B3: N^-1-[(4S)-4-carboxy-4-(19-carboxynonadecanoylamino)butanoyl]-Gly[Arg1,His14,Arg17,Pro21,Pro27,Pro34]-h-amylin (peptide)
peptide: {C20 diacid-γGlu}-GRCNTATCATQRLAHFLRHSSPNFGAIPSSTNVGPNTY-NH2
modifications: disulfide 3-8
SMILES: CC[C@H](C)[C@H](NC(=O)[C@H](C)NC(=O)CNC(=O)[C@H](Cc1ccccc1)NC(=O)[C@H](CC(N)=O)NC(=O)[C@@H]1CCCN1C(=O)[C@H](CO)NC(=O)[C@H](CO)NC(=O)[C@H](Cc1c[nH]cn1)NC(=O)[C@H](CCCNC(=N)N)NC(=O)[C@H](CC(C)C)NC(=O)[C@H](Cc1ccccc1)NC(=O)[C@H](Cc1c[nH]cn1)NC(=O)[C@H](C)NC(=O)[C@H](CC(C)C)NC(=O)[C@H](CCCNC(=N)N)NC(=O)[C@H](CCC(N)=O)NC(=O)[C@@H](NC(=O)[C@H](C)NC(=O)[C@@H]1CSSC[C@H](NC(=O)[C@H](CCCNC(=N)N)NC(=O)CNC(=O)CC[C@H](NC(=O)CCCCCCCCCCCCCCCCCCC(=O)O)C(=O)O)C(=O)N[C@@H](CC(N)=O)C(=O)N[C@@H]([C@@H](C)O)C(=O)N[C@@H](C)C(=O)N[C@@H]([C@@H](C)O)C(=O)N1)[C@@H](C)O)C(=O)N1CCC[C@H]1C(=O)N[C@@H](CO)C(=O)N[C@@H](CO)C(=O)N[C@H](C(=O)N[C@@H](CC(N)=O)C(=O)N[C@H](C(=O)NCC(=O)N1CCC[C@H]1C(=O)N[C@@H](CC(N)=O)C(=O)N[C@H](C(=O)N[C@@H](Cc1ccc(O)cc1)C(N)=O)[C@@H](C)O)C(C)C)[C@@H](C)O
notes: as for B2
B4: N^-1-[(4S)-4-carboxy-4-(19-carboxynonadecanoylamino)butanoyl]-Gly[Arg1,Ala14,Arg17,Pro21,Pro27,His34]-h-amylin (peptide)
peptide: {C20 diacid-γGlu}-GRCNTATCATQRLAAFLRHSSPNFGAIPSSTNVGHNTY-NH2
modifications: disulfide 3-8
SMILES: CC[C@H](C)[C@H](NC(=O)[C@H](C)NC(=O)CNC(=O)[C@H](Cc1ccccc1)NC(=O)[C@H](CC(N)=O)NC(=O)[C@@H]1CCCN1C(=O)[C@H](CO)NC(=O)[C@H](CO)NC(=O)[C@H](Cc1c[nH]cn1)NC(=O)[C@H](CCCNC(=N)N)NC(=O)[C@H](CC(C)C)NC(=O)[C@H](Cc1ccccc1)NC(=O)[C@H](C)NC(=O)[C@H](C)NC(=O)[C@H](CC(C)C)NC(=O)[C@H](CCCNC(=N)N)NC(=O)[C@H](CCC(N)=O)NC(=O)[C@@H](NC(=O)[C@H](C)NC(=O)[C@@H]1CSSC[C@H](NC(=O)[C@H](CCCNC(=N)N)NC(=O)CNC(=O)CC[C@H](NC(=O)CCCCCCCCCCCCCCCCCCC(=O)O)C(=O)O)C(=O)N[C@@H](CC(N)=O)C(=O)N[C@@H]([C@@H](C)O)C(=O)N[C@@H](C)C(=O)N[C@@H]([C@@H](C)O)C(=O)N1)[C@@H](C)O)C(=O)N1CCC[C@H]1C(=O)N[C@@H](CO)C(=O)N[C@@H](CO)C(=O)N[C@H](C(=O)N[C@@H](CC(N)=O)C(=O)N[C@H](C(=O)NCC(=O)N[C@@H](Cc1c[nH]cn1)C(=O)N[C@@H](CC(N)=O)C(=O)N[C@H](C(=O)N[C@@H](Cc1ccc(O)cc1)C(N)=O)[C@@H](C)O)C(C)C)[C@@H](C)O
notes: 38 residues

These binders were tested against T1, rat calcitonin receptor (assay: SPA competition binding, displacement of 125I-calcitonin from membranes of BHK tk'ts 13 cells transfected with rat calcitonin receptor (Assay VIII)).

Binder	IC50 [nM]
B1	38.3
KCNTATCATQRLADFLRHSSPNFGAIPSSTNVGSRTY-NH2 (disulfide 2-7) [[Asp14,Arg17,Pro21,Pro27,Arg35]-h-amylin]	30.9
B2	536
B3	65.9
{C20 diacid-γGlu}-GRCNTATCATQRLAAFLRHSSPNFGAIPSSTNVGPNTY-NH2 (disulfide 3-8, not restated for each compound)	56.3

Each binder was assayed against T2, human calcitonin receptor (assay: cell-based or functional assay).

Binder	hCTR funct. EC50 (pM)
B4	537

These binders were tested against T1, rat calcitonin receptor (assay: ratio of IC50 on rat calcitonin receptor (Assay VIII) to IC50 on rat amylin receptor (Assay VI)).

Binder	Ratio rCT/rAmylin binding
B1	113
B3	97.7
{C20 diacid-γGlu}-GRCNTATCATQRLAAFLRHSSPNFGAIPSSTNVGPNTY-NH2 (disulfide 3-8, not restated for each compound)	129

These binders were tested against T3, rat amylin receptor (rat calcitonin …) (assay: SPA competition binding, displacement of 125I-rat amylin from membranes of BHK tk'ts 13 cells transfected with rat calcitonin receptor + rat RAMP 3 (Assay VI)).

Binder	IC50 [nM]
B1	0.339
B2	1.69
B3	0.674
{C20 diacid-γGlu}-GRCNTATCATQRLAAFLRHSSPNFGAIPSSTNVGPNTY-NH2 (disulfide 3-8, not restated for each compound)	0.436

These binders were tested against T4, human calcitonin receptor (assay: ratio of IC50 on human calcitonin receptor (Assay VII) to IC50 on human amylin receptor (Assay V)).
Protocol: The resulting pellet was resuspended, homogenized and centrifuged (20.000 rpm, 15 min) in a buffer containing 20 mM Na-HEPES and 0.1 mM EDTA (pH 7.4, buffer 2). The resulting pellet was resuspended in buffer 2 and protein concentration was measured (BCA protein Assay, Pierce). The homogenate was kept cold during the whole procedure. The membranes were kept at −80° C. until use. The assay was performed in a 384 well Optiplate (PerkinElmer) in a total volume of 40 ul. Membranes were mixed with SPA beads. Final concentration of membranes 35 ng/μL final and SPA beads was 0.05 mg/well. Test-compounds were dissolved in DMSO and further diluted in assay buffer (50 mM Hepes, pH 7.4, 1 mM CaCl2, 5 mM MgCl₂, 0.1% OA and 0.02% Tween20). […] The final mixture was incubated with shaking at 400 rpm for 120 min at 25° C. prior to centrifugation (1500 rpm, 10 min). Samples were analyzed on TopCounter™ (Packard). The IC₅₀ was calculated using (one site binding competition analysis) GraphPad Prism5 as a measure of receptor affinity.
Membranes were prepared in the following way; the cells were rinsed with PBS and incubated with Versene for approximately 5 min before harvesting. The cells were flushed with PBS and the cell-suspension was centrifuged for 5 min at 1000 rpm. Cells were homogenized (Ultrathurrax) in a buffer containing 20 mM Na-HEPES and 10 mM EDTA (pH 7.4) and centrifuged at 20.000 rpm for 15 min. The resulting pellet was resuspended, homogenized and centrifuged (20.000 rpm, 15 min) in a buffer containing 20 mM Na-HEPES and 0.1 mM EDTA (pH 7.4, buffer 2). The resulting pellet was resuspended in buffer 2 and protein concentration was measured (BCA protein Assay, Pierce). The homogenate was kept cold during the whole procedure. The membranes were kept at −80° C. until use. Assay was performed in a 384 well Optiplate (PerkinElmer) in a total volume of 40 ul. Membranes were mixed with SPA beads.

Binder	Ratio hCT/hAmylin binding
B1	53.6
B3	36.2
{C20 diacid-γGlu}-GRCNTATCATQRLAAFLRHSSPNFGAIPSSTNVGPNTY-NH2 (disulfide 3-8, not restated for each compound)	26.5
